# From article PMC4797282 (Nucleic Acids Research, 2016)
# Target: the molecule itself
# Assay: SEC-MALS
protein,measurement,value
"CpMgm101-NoTag (untagged full-length mature Candida parapsilosis Mgm101) (natural protein, UniProt G8B839 30-266, looked up) VPKTASAKTTSKLAPSITTEDEVAEQDPSLQEPQSATSTASFAFHDAPPETRSVLNSSTNNNIDWSDSYHGLGSQPFSREIADILLAPIKDQDIEIKPDGLLYLPEIKYRRILNKAFGPGGWGLVPRTESLITKSQISREYGLICHGRLISIARGEQDYFGGEEKVTTALEGCKSNALMRCCKDLGIASELWDPGFIRKWKAKYCEEVFVEHVVNKKKKKLWKLKSNKKIEYPYKQL",stoichiometry N,3
